Values quoted from earlier work as cited in paper PMC9080292, “Correction: Rational design of a peptide capture agent for CXCL8 based on a model of the CXCL8:CXCR1 complex” (RSC Advances, 2018).
Square brackets hold non-standard residues; d marks the D form. Ends that are not written are not given here. Ahx = NCCCCCC(=O)O

Assays:
CXCL8 = target: T1, CXCL8 (Homo sapiens, UniProt P10145); details: original publication; fluorescence anisotropy; now attributed to the peptide ending with glutamic acid; ref Helmer et al., RSC Adv., 2015, 5, 25657–25668; read-out: affinity (reported high affinity); cited from earlier work
T1 sequence (P10145 21-99): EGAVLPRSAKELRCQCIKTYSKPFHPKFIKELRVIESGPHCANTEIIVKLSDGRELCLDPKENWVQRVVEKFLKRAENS
Procedure: This was confirmed by high resolution mass spectrometry. […] We conclude that all experiments were performed with the peptid ...

[1] = synthesized peptide, result in words; ref Helmer et al., RSC Adv., 2015, 5, 25657–25668; cited from earlier work

Substance	Kd (CXCL8)	structure by CD-spectroscopy [1]
AKWRMVLRI–Ahx–ADTLMRTE (AKWRMVLRI[Ahx]ADTLMRTE) [IL8-RP-Loops, IL8 capture peptide; actually synthesized peptide with C-terminal glutamic acid]	500 ± 300 nM	
AKWRMVLRI[Ahx]ADTLMRTE [IL8-RP-Loops, IL8 capture peptide; actually synthesized peptide with C-terminal glutamic acid]		a helical structure
